{"source": "paper PMC6028389", "about": "“Dedicated surveillance mechanism controls G-quadruplex forming non-coding RNAs in human mitochondria”", "molecular_target": "T1, GRSF1 wild type (Homo sapiens, UniProt Q12849 118-480)", "T1 sequence": "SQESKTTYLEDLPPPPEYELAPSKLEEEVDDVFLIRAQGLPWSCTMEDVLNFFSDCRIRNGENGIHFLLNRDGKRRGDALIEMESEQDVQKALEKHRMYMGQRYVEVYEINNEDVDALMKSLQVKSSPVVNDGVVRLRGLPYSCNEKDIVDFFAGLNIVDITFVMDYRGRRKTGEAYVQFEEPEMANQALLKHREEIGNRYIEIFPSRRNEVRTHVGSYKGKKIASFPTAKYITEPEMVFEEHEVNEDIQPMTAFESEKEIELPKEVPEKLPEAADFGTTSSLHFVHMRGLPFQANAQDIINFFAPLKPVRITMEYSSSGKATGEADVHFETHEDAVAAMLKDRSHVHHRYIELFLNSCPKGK", "experiment": "EMSA; 75 ug/ml heparin; EMSA: 5 nM RNA, 0-2560 nM protein, 10 mM Tris-HCl pH 8.0, 2.5 mM KCl, 30 mM NaCl, 1 mM EDTA, 0.2 mM DTT, 75 ug/ml heparin, 30 min at 30 C; 7% PAGE", "conditions": "protein: recombinant; tags: N-terminal 6xHis-SUMO, cleaved by SUMO protease; label: 5'-32P; predicted secondary structure; G4-forming"}
{"binder": "tRNA-like (structured_RNA) RNA: GGGCUGUGACUAGUAUGUUGAGUCCUGUAAGUAGGAGAGUGAUAUUUGAUCAGGAGAACGUGGUUACUAGCACCCA", "values": [{"measurement": "Kd", "result": "~100", "unit": "nM"}]}
